To fix the notation:
B1: antibody 1037 (antibody, V domains shown)
VH: QITLKESGPTLVKPTQTLTLTCTFSGFSLSTSGVGVGWIRQPPGKALEWLALIYWDDDKRYSPSLKSRLTITKDTSKNQVVLTMTNMDPVDTATYYCAHHTITRINDYWGQGTLVTVSS
VL: QSALTQPASVSGSPGQSITISCTATSSDVGAYNYVSWYQQHPGKAPKLMIYDVSKRPSGVSNRFSGSKSGNTASLTISGLQAEDEADYYCSSYTSSSTVFGGGTKLTVLG
B2: antibody 1404 (antibody, V domains shown)
VH: B1 VH with T31I, I39L, T72S, T83K, M87I, T101S, T103S, R104T, N106F, Y108H
VL: B1 VL with A31D, Y51F, D52E, K55D, V60I, S95T, T98A
B3: antibody 1444 (antibody, V domains shown)
VH: QVQLVQSGAEVKKPGASVKVSCKASGYTFTAYYMHWVRQAPGQGLEWMGWINPNSDDTNYAQKFQGRVTMTRDTSISTAYMELSRLRSDDTAVYYCAREEGVFTIGDRYFDLWGRGTLVSVSS
VL: QTVVTQEPSFSVSPGGTVTLTCGLSSGSVSTSYYPSWYQQTPGQAPRTLIYNTNTRSSGVPDRFSGSILGNKAALTITGAQADDESDYYCVLYMGSGIWVFGGGTKLTVLG
B4: antibody 896 (antibody, V domains shown)
VH: EVQLVESGGGVVQPGGSLRLSCAASGFTFDDYAMHWVRQVPGKGLEWVSLISGDGGSTYYADSVKGRFTISRDNSKNSLYVQMNSLRTEDTALYYCVKDRGGSGWDLNHYYYGMDVWGQGTTVTVSS
VL: DIQLTQSPSFLSASVGDRVTVTCRASQGISSYLAWYQQKPGKAPKLLIYAAYTLQSGVPSRFSGSGSETEFTLTISSLQPEDFATYYCQQVKSYPLTFGGGTKVEIKR
B5: antibody 851 (antibody, V domains shown)
VH: QITLKESGPTLVKPTQTLTLTCTFSGFSLSTNGVGMGWIRQPPGKALEWLALIYWDDDQFYSPSLKSRLTITRDTSKNQVVLTMTNMDPVDTATYYCAQAFYESFGFYSWGQGTLVTVSS
VL: NFMLTQPHSVSESPGKTVIISCTRSIGSIASNYVQWYQQRPGSAPTIVVFEDNERPSGVPDRFSGSIDRSSNSASLTISGLKTEDEADYYCQSYDGSSELVFGGGTKLTVLG
B6: antibody 1538 (antibody, V domains shown)
VH: EVQLLESGGGLVQPGGSLRLSCAASGFTFSSYAMSWVRQAPGKGLEWVSGISDSGGSTYYADYVKGRFTISRDNSKDTLYLQMNSLRAEDTAVYYCAKDRGNEYALTHYYYYAMDVWGQGTTVTVSS
VL: DIQMTQSPSSLSASVGDRVTITCRASQSISSYLNWYQQKPGKAPKLLIYAAYSLQSGVPSRFSGGGSGTDFTLTISSLQPEDFATYFCQQSYSTPITFGQGTRLEIKR
B7: antibody 923 (antibody, V domains shown)
VH: EVQLVESGGGVVRPGGSLRLSCAASGFIFDDYDMTWVRQAPGKGLEWVSGISWNGGNTGYADSVKGRFTISRDNAKNSLYLQMNSLRAEDTALYHCAVIMSPIPRYSGYDWAGGAFDIWGQGTMVTVSS
VL: SSELTQDPAVSVALGQTVRITCQGDSLRSYYASWYQQKPGQVPILVIYDKNNRPSGIPDRFSGSSSGNTASLTITGAQAEDEADYYCNSRDSSGNAVVFGGGTKLTVLG

Numbering of substitutions follows the chain as printed.

For one assay, the target named is SARS-CoV-2 full length Spike protein, lineage B.1.1.7 (SARS-CoV-2).
The molecule B1 yielded a bead assay binding signal of 749.
B2 displayed a bead assay binding signal of 719.
Consider B3, for which the bead assay binding signal is 626.
Turning to B4, the bead assay binding signal was 692.
With B5, the bead assay binding signal worked out at 545.
For the molecule B6, the bead assay binding signal is 706.
The molecule B7 registered a bead assay binding signal of 604.

The next assay has as its target SARS-CoV-2 full length Spike protein, lineage B.1.351 (SARS-CoV-2).
As to B1, the bead assay binding signal came to 985.
On the same count and under the same terms, with B2 the figure was 941.
Same read-out and setting: with B3 the figure was 802; with B4, 946; with B5, 681.
On the same count and under the same terms, with B6 the figure was 928; with B7, 435.

The values are drawn from patent US20220356229A1.
